Our source for the Kd values is paper PMC7682656.

This experiment has as its target His6-tagged NBDY (human). As to the kind of experiment: SPR + ITC.

One may read the pKd as −log10 of the Kd, conventionally taken in molar units.

pKd: −log10 of the molar value.

As for “purified EDC4 WD40 domain (residues 72-528) (from UniProt Q6P2E9 72-528) (domain or fragment)”, the pKd is 6.00.
